Target: wild-type Ralstonia solanacearum Isocyanide Hydratase (Ralstonia solanacearum)
Test: crystal structure

“wild-type Ralstonia solanacearum Isocyanide Hydratase (enzyme)” showed a stoichiometry N of 2.

Reference: PMC10792529 (Proteins, 2023)
